Laboratory results from article PMC12449053, “Cortolezzis Ylenia Formal analysis Investigation Methodology Department of Medicine, Laboratory of Biochemistry, University of Udine, 33100 Udine, Italy”.

Assays:
GST-hnRNPA1 [1] = biological target: T1, GST-hnRNPA1 (UniProt P09651 1-372); assay: EMSA; 50 mM KCl; bound at 1:1 ratio; EMSA: 50 mM Tris-HCl pH 7.4, 50 mM KCl, 1 mM EDTA, 1 mM Na3VO4, 5 mM NaF, 1 mM DTT, 8% glycerol, 25 C, 30 nM RNA; ITC: 10 mM KPi, 50 mM KCl, 25 C, 8 uM UP1; settings: protein: recombinant; tags: GST (N-terminal, pGEX4T1); label: Cy5.5 5'; rG4
T1 sequence (P09651 whole entry): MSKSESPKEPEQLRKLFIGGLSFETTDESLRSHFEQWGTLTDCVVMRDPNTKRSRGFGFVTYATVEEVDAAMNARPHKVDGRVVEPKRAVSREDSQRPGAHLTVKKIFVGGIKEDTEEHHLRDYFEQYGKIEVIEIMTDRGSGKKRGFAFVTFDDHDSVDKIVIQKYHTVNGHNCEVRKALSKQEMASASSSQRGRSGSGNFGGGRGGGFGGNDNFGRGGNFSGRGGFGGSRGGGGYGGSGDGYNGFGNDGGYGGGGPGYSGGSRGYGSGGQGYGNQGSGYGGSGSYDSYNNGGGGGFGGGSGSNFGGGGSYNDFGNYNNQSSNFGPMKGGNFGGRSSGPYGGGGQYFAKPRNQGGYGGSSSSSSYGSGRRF

GST-hnRNPA1 [2] = biological target: T1, GST-hnRNPA1; assay: EMSA; 10-fold molar excess of protein; EMSA: 50 mM Tris-HCl pH 7.4, 50 mM KCl, 1 mM EDTA, 1 mM Na3VO4, 5 mM NaF, 1 mM DTT, 8% glycerol, 25 C, 30 nM RNA; ITC: 10 mM KPi, 50 mM KCl, 25 C, 8 uM UP1; settings: protein: recombinant; tags: GST (N-terminal, pGEX4T1); unable to form rG4
UP1 = UP1 (UniProt P09651 1-196); assay: ITC; 50 mM KCl; one-site fit, Kd not in material; EMSA: 50 mM Tris-HCl pH 7.4, 50 mM KCl, 1 mM EDTA, 1 mM Na3VO4, 5 mM NaF, 1 mM DTT, 8% glycerol, 25 C, 30 nM RNA; ITC: 10 mM KPi, 50 mM KCl, 25 C, 8 uM UP1; settings: protein: recombinant; tags: none (GST removed by PreScission); rG4, two stacked G-tetrads
UP1, sequence (P09651 1-196): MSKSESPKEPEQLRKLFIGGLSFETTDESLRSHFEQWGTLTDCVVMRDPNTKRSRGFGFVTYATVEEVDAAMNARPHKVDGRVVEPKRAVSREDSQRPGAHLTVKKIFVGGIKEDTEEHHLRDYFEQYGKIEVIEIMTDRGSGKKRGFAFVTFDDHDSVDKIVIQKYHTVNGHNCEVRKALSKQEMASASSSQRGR

GCAGCGGCGGCGGCAGUGGCGGCGGCGAAGGUGGCGGCGGC (structured_RNA) [41-mer 5'UTR (utr-c + utr-z)]
binding result (GST-hnRNPA1 [1]): binds

GCAGCGCCAGCCGCAGUCGCGUCCGCGAACGUAGCCGCCGC (ssRNA) [41-mer 5'UTRmut]
binding result (GST-hnRNPA1 [2]): no binding

GGUGGCGGCGG (structured_RNA) [utr-c]
binding result (UP1): binds
